Results: patent US20130251703A1 (Novartis, published 2013)

Columns and labels:
[1] = molecular target: T1, human HER3 endogenously expressed on human cancer cells (SK-Br-3, BT-474, MCF7) (human, UniProt P21860 20-1342); assay: cell-based or functional assay
[2] = molecular target: T1, human HER3 endogenously expressed on …; assay: cell-based or functional assay; remark: listed apart in the source
[3] = molecular target: T1, human HER3 endogenously expressed on …; assay: cell-based or functional assay; remark: listed apart in the source
[4] = molecular target: T2, Hu HER3: CD33-[Human HER3, residues 20-640]-TAG (human, UniProt P21860 20-640); assay: solution equilibrium titration (SET), IgG, ECL read-out
T2 construct: also called hu HER3-Tag; HER3-Tag; not shown: C-terminal TAG (e.g. FLAG TAG)

[5] = molecular target: T3, Cyno HER3: CD33-[Cyno HER3, residues 20-643]-TAG (cynomolgus monkey, UniProt G7PIG5 20-643); assay: as above
T3 construct: also called cy HER3-Tag; not shown: C-terminal TAG (e.g. FLAG TAG)

[6] = molecular target: T4, Mu HER3: CD33-[Murine HER3, residues 20-643]-TAG (mouse, UniProt Q61526 20-643); assay: as above
T4 construct: also called mu HER3-Tag; not shown: C-terminal TAG (e.g. FLAG TAG)

[7] = molecular target: T5, Rat HER3: CD33-[Rat HER3, residues 20-643]-TAG (rat, UniProt Q62799 20-643); assay: as above
T5 construct: also called ra HER3-Tag; not shown: C-terminal TAG (e.g. FLAG TAG)

[8] = molecular target: T6, HER3 D1-2: CD33-[Human HER3, residues 20-329]-TAG (human, UniProt P21860 20-329); assay: HER3 domain binding ELISA: recombinant protein coated on the plate, antibody titrated; the y axis reads 'Fluorescence Units'
T6 construct: also called D1-2-Tag; domains 1 and 2; not shown: C-terminal TAG (e.g. FLAG TAG)
Experimental: (§1) All wells were then washed with PBS/0.1% Tween-20, blocked with PBS/1% BSA/0.1% Tween-20 and washed with PBS/0.1% Tween-20. Anti-HER3 antibodies were added to the relevant wells up to a final concentration of 10 μg/mL and incubated at room temperature. Plates were washed with PBS/0.1% Tween-20 prior to the addition of the appropriate peroxidase linked detection antibody diluted 1/10000 in PBS/1% BSA/0.1% Tween-20. The detection antibodies used were goat anti-mouse (Pierce, 31432), rabbit anti-goat (Pierce, 31402) and goat anti-human (Pierce, 31412). Plates were incubated at room temperature before washing with PBS/0.1% Tween-20. 100 μl TMB (3,3′,5,5′ tetramethyl benzidine) substrate solution (BioFx) was added to all wells before stopping the reaction with 50 μl 12.5% H₂SO₄. […] Where appropriate, dose response curves were analyzed using Graphpad Prism.

[9] = molecular target: T7, HER3 D2: CD33-[Human HER3, residues 185-329]-TAG (human, UniProt P21860 185-329); assay: as above
T7 construct: also called D2-Tag; domain 2; not shown: C-terminal TAG (e.g. FLAG TAG)
Experimental: as §1

BT474 pHER3 % inhibition [1]: 62%
BT474 pHER3 IC50 [1]: 142 pM
MCF7 pHER3 % inhibition [1]: 79%
MCF7 pHER3 IC50 [1]: 57 pM
SK-Br-3 pHER3 % inhibition [1]: 71%
SK-Br-3 pHER3 IC50 [1]: 29 pM
BT-474 pAkt % inhibition [2]: 70%
BT-474 pAkt IC50 [2]: 225 pM
MCF7 pAkt % inhibition [2]: 74%
MCF7 pAkt IC50 [2]: 235 pM
SK-Br-3 pAkt % inhibition [2]: 85%
SK-Br-3 pAkt IC50 [2]: 17 pM
MCF7 proliferation % inhibition [3]: 39%
MCF7 proliferation IC50 [3]: 0.073 nM
SK-Br-3 proliferation % inhibition [3]: 42%
SK-Br-3 proliferation IC50 [3]: 0.015 nM
Kd [4]: 1.1 nM
Kd [5]: 2.2 nM
Kd [6]: 1.9 nM
Kd [7]: 5.2 nM
binding result [8]: no binding (tested: 10 µg/ml)
binding result [9]: no binding (tested: 10 µg/ml)
B1: MOR12604 (antibody, V domains shown)
VH: QVQLVQSGAEVKKPGSSVKVSCKASGGTFSSYAISWVRQAPGQGLEWMGLIIPRYGKARYAQKFQGRVTITADESTSTAYMELSSLRSEDTAVYYCARNWPYYYMDFWGQGTLVTVSS
VL: DIVLTQSPATLSLSPGERATLSCRASQNIVFNLAWYQQKPGQAPRLLIYDASNRATGVPARFSGSGSGTDFTLTISSLEPEDFAVYYCQQKKSMPLTFGQGTKVEIKR
notes: Tested as IgG
